Laboratory results reported in US20260193335A1 (ZOETIS SERVICES, published 2026).

molecular target: T1, Feline FcRn (complex of FcRn-α subunit and β-microglobulin, C-terminal His tag) (feline, UniProt A0ABI7ZNY9 23-296; Q5MGS7 21-118); experiment: SPR Biacore, FcRn on sensor, pH 6; pH 6
T1 construct: treated here as one molecule
Description: As discussed in the above Example section, Feline FcRn was isolated, prepared and mutant Fc IgGs were assayed against feline FcRn according to Strietzelg et. al. Standard RACE PCR was used to amplify feline FcRn-α subunit and β-microglobulin. FcRn-α subunit and β-microglobulin were co-transfected into HEK 293 cells and the FcRn complex was purified by IMAC affinity purification via the c-terminal His tag. KD's were measured by Biacore 3000 or Biacore T200 (GE Healthcare, Pittsburgh, PA, USA) using a CM5 sensor chip.
FcRn was captured on the surface of the sensor using a modified SA capture method. 10 mM MES; 150 mM NaCl; 0.005% Tween20; 0.5 mg/mL BSA; pH6 was used as capture, method running buffer and titrations. 1×HBS-P, 0.5 mg/mL BSA; pH7.4 was also used for method running buffer and titrations. Fc mutant IgGs were flowed over receptor surfaces and affinity was determined using T200 evaluation software or Biacore Insight Evaluation software. Blank runs containing buffer only were subtracted out from all runs. Flow cells were regenerated using 50 mM Tris pH8 or pH9. Runs were performed at 15° C.

Binder	Kd [nM]
mAb6 anti-TGFβ antibody ZTS-120-1, wildtype (antibody, also called mAb6 ID No. 12) heavy: QVQLVQSGAEVKKPGSSVKVSCKASGYTFSSNVISWVRQAPGQGLEWMGGVIPIVDIANYAQRFKGRVTITADESTSTTYMELSSLRSEDTAVYYCASTLGLVLDAMDYWGQGTLVTVSSASTTAPSVFPLAPSCGTTSGATVALACLVLGYFPEPVTVSWNSGALTSGVHTFPAVLQASGLYSLSSMVTVPSSRWLSDTFTCNVAHPPSNTKVDKTVRKTDHPPGPKPCDCPKCPPPEMLGGPSIFIFPPKPKDTLSISRTPEVTCLVVDLGPDDSDVQITWFVDNTQVYTAKTSPREEQFNSTYRVVSVLPILHQDWLKGKEFKCKVNSKSLPSPIERTISKAKGQPHEPQVYVLPPAQEELSRNKVSVTCLIKSFHPPDIAVEWEITGQPEPENNYRTTPPQLDSDGTYFVYSKLSVDRSHWQRGNTYTCSVSHEALHSHHTQKSLTQSPGK light: ETVLTQSPGTLSLSPGERATLSCRASQSLGSSYLAWYQQKPGQAPRLLIYGASSRAPGIPDRFSGSGSGTDFTLTISRLEPEDFAVYYCQQYADSPITFGQGTKLEIK	35.2
mAb6 anti-TGFβ antibody ZTS-120-2, wildtype (antibody, also called mAb6 ID No. 14) heavy: QVLLVQSGADVRKPGASVKIFCKASGYTFTSNVISWVRQTPAQGFEWMGGVIPIVDIANYAQRFKGRLVLTADTSTNTAYMELRSLKSADTAVYYCASTLGLVLDAMDYWGQGSLVTVSSASTTAPSVFPLAPSCGTTSGATVALACLVLGYFPEPVTVSWNSGALTSGVHTFPAVLQASGLYSLSSMVTVPSSRWLSDTFTCNVAHPPSNTKVDKTVRKTDHPPGPKPCDCPKCPPPEMLGGPSIFIFPPKPKDTLSISRTPEVTCLVVDLGPDDSDVQITWFVDNTQVYTAKTSPREEQFNSTYRVVSVLPILHQDWLKGKEFKCKVNSKSLPSPIERTISKAKGQPHEPQVYVLPPAQEELSRNKVSVTCLIKSFHPPDIAVEWEITGQPEPENNYRTTPPQLDSDGTYFVYSKLSVDRSHWQRGNTYTCSVSHEALHSHHTQKSLTQSPGK light: EIQMTQSPSSLSASPGDRVTITCRASQSLGSSYLAWYQQKPGKVPKLLIYGASSRAPGVPSRFSGSGSGTDFTLTISSLEPEDAATYYCQQYADSPITFGQGTKLEIK	22.3
mAb6 anti-TGFβ antibody ZTS-120-5, wildtype (antibody, also called mAb6 ID No. 20) heavy: DVQLVESGGDLVKPGGSLRLTCVASGYTFSSNVMHWVRQAPGKGLQWVAYVIPIVDIAYYADSVKGRFTISIDNSKNTLYLQMNSLKTEDTATYYCARTLGLVLDAMDYWGQGTLVTVSSASTTAPSVFPLAPSCGTTSGATVALACLVLGYFPEPVTVSWNSGALTSGVHTFPAVLQASGLYSLSSMVTVPSSRWLSDTFTCNVAHPPSNTKVDKTVRKTDHPPGPKPCDCPKCPPPEMLGGPSIFIFPPKPKDTLSISRTPEVTCLVVDLGPDDSDVQITWFVDNTQVYTAKTSPREEQFNSTYRVVSVLPILHQDWLKGKEFKCKVNSKSLPSPIERTISKAKGQPHEPQVYVLPPAQEELSRNKVSVTCLIKSFHPPDIAVEWEITGQPEPENNYRTTPPQLDSDGTYFVYSKLSVDRSHWQRGNTYTCSVSHEALHSHHTQKSLTQSPGK light: EIQMTQSPSSLSASPGDRVTITCRASQSLGSSYLAWYQQKPGKVPKLLIYGASSRAPGVPSRFSGSGSGTDFTLTISSLEPEDAATYYCQQYADSPITFGQGTKLEIK	31.6
mAb6 anti-TGFβ antibody ZTS-120-3, wildtype (antibody, also called mAb6 ID No. 16) heavy: QVLLVQSGAEVRTPGASVKIFCKASGYGFTSNVISWVRQSPAQGLEWMGGVIPIVDIANYAQRFKGRLTLTADTSTDTAYMELSSLRSADTAMYYCASTLGLVLDAMDYWGQGTLVTVSSASTTAPSVFPLAPSCGTTSGATVALACLVLGYFPEPVTVSWNSGALTSGVHTFPAVLQASGLYSLSSMVTVPSSRWLSDTFTCNVAHPPSNTKVDKTVRKTDHPPGPKPCDCPKCPPPEMLGGPSIFIFPPKPKDTLSISRTPEVTCLVVDLGPDDSDVQITWFVDNTQVYTAKTSPREEQFNSTYRVVSVLPILHQDWLKGKEFKCKVNSKSLPSPIERTISKAKGQPHEPQVYVLPPAQEELSRNKVSVTCLIKSFHPPDIAVEWEITGQPEPENNYRTTPPQLDSDGTYFVYSKLSVDRSHWQRGNTYTCSVSHEALHSHHTQKSLTQSPGK light: EIQMTQSPSSLSASPGDRVTITCRASQSLGSSYLAWYQQKPGKVPKLLIYGASSRAPGVPSRFSGSGSGTDFTLTISSLEPEDAATYYCQQYADSPITFGQGTKLEIK	20.5
mAb6 anti-TGFβ antibody ZTS-120-4, wildtype (antibody, also called mAb6 ID No. 18) heavy: QVLLVQSGADVRKPGASVKIFCKASGYTFSSNVMHWVRQTPAQGFEWMGSVIPIVDIATYARRFQGRLVLTADTSTNTAYMELRSLKSADTAVYYCARTLGLVLDAMDYWGQGSLVTVSSASTTAPSVFPLAPSCGTTSGATVALACLVLGYFPEPVTVSWNSGALTSGVHTFPAVLQASGLYSLSSMVTVPSSRWLSDTFTCNVAHPPSNTKVDKTVRKTDHPPGPKPCDCPKCPPPEMLGGPSIFIFPPKPKDTLSISRTPEVTCLVVDLGPDDSDVQITWFVDNTQVYTAKTSPREEQFNSTYRVVSVLPILHQDWLKGKEFKCKVNSKSLPSPIERTISKAKGQPHEPQVYVLPPAQEELSRNKVSVTCLIKSFHPPDIAVEWEITGQPEPENNYRTTPPQLDSDGTYFVYSKLSVDRSHWQRGNTYTCSVSHEALHSHHTQKSLTQSPGK light: EIQMTQSPSSLSASPGDRVTITCRASQSLGSSYLAWYQQKPGKVPKLLIYGASSRAPGVPSRFSGSGSGTDFTLTISSLEPEDAATYYCQQYADSPITFGQGTKLEIK	19.6

Second part, the binder after the results:

Kd [nM]	Binder
30.2	mAb6 anti-TGFβ antibody ZTS-120-7, wildtype (antibody, also called mAb6 ID No. 24) heavy: DVQLVESGGDLVKPGGSLRLTCVASGYTFSSNVMHWVRQAPGKGLQWVAYVIPIVDIAYYADSVKGRFTISIDNSKNTLYLQMNSLKTEDTATYYCARTLGLVLDAMDYWGQGTLVTVSSASTTAPSVFPLAPSCGTTSGATVALACLVLGYFPEPVTVSWNSGALTSGVHTFPAVLQASGLYSLSSMVTVPSSRWLSDTFTCNVAHPPSNTKVDKTVRKTDHPPGPKPCDCPKCPPPEMLGGPSIFIFPPKPKDTLSISRTPEVTCLVVDLGPDDSDVQITWFVDNTQVYTAKTSPREEQFNSTYRVVSVLPILHQDWLKGKEFKCKVNSKSLPSPIERTISKAKGQPHEPQVYVLPPAQEELSRNKVSVTCLIKSFHPPDIAVEWEITGQPEPENNYRTTPPQLDSDGTYFVYSKLSVDRSHWQRGNTYTCSVSHEALHSHHTQKSLTQSPGK light: DIVLTQPPSLSVNLGQTARITCRASQSLGSSYLAWYQQKPGQAPKLVTYGASSRAPGIPDRFSGTNSGITATLTISGARAEDEADYYCQQYADSPITFGQGTKLEIK
44.3	mAb6 anti-TGFβ antibody ZTS-120-9, wildtype (antibody, also called mAb6 ID No. 28) heavy: DVQLVESGGDLVKPGGSLRLTCVASGYTFSSNVMHWVRQAPGKGLQWVAYVIPIVDIAYYADSVKGRFTISIDNSKNTLYLQMNSLKTEDTATYYCARTLGLVLDAMDYWGQGTLVTVSSASTTAPSVFPLAPSCGTTSGATVALACLVLGYFPEPVTVSWNSGALTSGVHTFPAVLQASGLYSLSSMVTVPSSRWLSDTFTCNVAHPPSNTKVDKTVRKTDHPPGPKPCDCPKCPPPEMLGGPSIFIFPPKPKDTLSISRTPEVTCLVVDLGPDDSDVQITWFVDNTQVYTAKTSPREEQFNSTYRVVSVLPILHQDWLKGKEFKCKVNSKSLPSPIERTISKAKGQPHEPQVYVLPPAQEELSRNKVSVTCLIKSFHPPDIAVEWEITGQPEPENNYRTTPPQLDSDGTYFVYSKLSVDRSHWQRGNTYTCSVSHEALHSHHTQKSLTQSPGK light: DIVMTQSPGSLAGSPGQQVTMNCRASQSLGSSYLAWYQQKPGQHPELLIYGASSRAPGVPDRFSGSGSGTDFTLTISNLQAEDVANYYCQQYADSPITFGQGTKLEIK
14.3	mAb6 anti-TGFβ antibody ZTS-120-6, wildtype (antibody, also called mAb6 ID No. 22) heavy: QVLLVQSGADVRKPGASVKIFCKASGYTFSSNVMHWVRQTPAQGFEWMGSVIPIVDIATYARRFQGRLVLTADTSTNTAYMELRSLKSADTAVYYCARTLGLVLDAMDYWGQGSLVTVSSASTTAPSVFPLAPSCGTTSGATVALACLVLGYFPEPVTVSWNSGALTSGVHTFPAVLQASGLYSLSSMVTVPSSRWLSDTFTCNVAHPPSNTKVDKTVRKTDHPPGPKPCDCPKCPPPEMLGGPSIFIFPPKPKDTLSISRTPEVTCLVVDLGPDDSDVQITWFVDNTQVYTAKTSPREEQFNSTYRVVSVLPILHQDWLKGKEFKCKVNSKSLPSPIERTISKAKGQPHEPQVYVLPPAQEELSRNKVSVTCLIKSFHPPDIAVEWEITGQPEPENNYRTTPPQLDSDGTYFVYSKLSVDRSHWQRGNTYTCSVSHEALHSHHTQKSLTQSPGK light: DIVLTQPPSLSVNLGQTARITCRASQSLGSSYLAWYQQKPGQAPKLVTYGASSRAPGIPDRFSGTNSGITATLTISGARAEDEADYYCQQYADSPITFGQGTKLEIK
35.7	mAb6 anti-TGFβ antibody ZTS-120-8, wildtype (antibody, also called mAb6 ID No. 26) heavy: QVLLVQSGADVRKPGASVKIFCKASGYTFTSNVISWVRQTPAQGFEWMGGVIPIVDIANYAQRFKGRLVLTADTSTNTAYMELRSLKSADTAVYYCASTLGLVLDAMDYWGQGSLVTVSSASTTAPSVFPLAPSCGTTSGATVALACLVLGYFPEPVTVSWNSGALTSGVHTFPAVLQASGLYSLSSMVTVPSSRWLSDTFTCNVAHPPSNTKVDKTVRKTDHPPGPKPCDCPKCPPPEMLGGPSIFIFPPKPKDTLSISRTPEVTCLVVDLGPDDSDVQITWFVDNTQVYTAKTSPREEQFNSTYRVVSVLPILHQDWLKGKEFKCKVNSKSLPSPIERTISKAKGQPHEPQVYVLPPAQEELSRNKVSVTCLIKSFHPPDIAVEWEITGQPEPENNYRTTPPQLDSDGTYFVYSKLSVDRSHWQRGNTYTCSVSHEALHSHHTQKSLTQSPGK light: DIVMTQSPGSLAGSPGQQVTMNCRASQSLGSSYLAWYQQKPGQHPELLIYGASSRAPGVPDRFSGSGSGTDFTLTISNLQAEDVANYYCQQYADSPITFGQGTKLEIK
